B1: STIM1(del344-448)-mApple (natural protein, human, UniProt Q13586 23-685, looked up)
chain: LSHSHSEKATGTSSGANSEESTAAEFCRIDKPLCHSEDEKLSFEAVRNIHKLMDDDANGDVDVEESDEFLREDLNYHDPTVKHSTFHGEDKLISVEDLWKAWKSSEVYNWTVDEVVQWLITYVELPQYEETFRKLQLSGHAMPRLAVTNTTMTGTVLKMTDRSHRQKLQLKALDTVLFGPPLLTRHNHLKDFMLVVSIVIGVGGCWFAYIQNRYSKEHMKKMMKDLEGLHRAEQSLHDLQERLHKAQEEHRTVEVEKVHLEKKLRDEINLAKQEAQRLKELREGTENERSRQKYAEEELEQVREALRKAEKELESHSSWYASLVAALNIDPSWMGSTRPNPAHFIMTDDVDDMDEEIVSPLSMQSPSLQSSVRQRLTEPQHGLGSQRDLTHSDSESSLHMSDRQRVAPKPPQMSRAADEALNAMTSNGSHRLIEGVHPGSLVEKLPDSPALAKKALLALNHGLDKAHSLMELSPSAPPGGSPHLDSSRSHSPSSPDPDTPSPVGDSRALQASRNTRIPHLAGKKAVAEEDNGSIGEETDSSPGRKKFPLKIFKKPLKK
notes: signal peptide in the construct; source: COS7 cells, transiently transfected (Lipofectamine 2000), in live cells; not shown: mApple, C-terminal, kept
B2: STIM1(del302-462)-mApple (natural protein, human, UniProt Q13586 23-685, looked up)
chain: LSHSHSEKATGTSSGANSEESTAAEFCRIDKPLCHSEDEKLSFEAVRNIHKLMDDDANGDVDVEESDEFLREDLNYHDPTVKHSTFHGEDKLISVEDLWKAWKSSEVYNWTVDEVVQWLITYVELPQYEETFRKLQLSGHAMPRLAVTNTTMTGTVLKMTDRSHRQKLQLKALDTVLFGPPLLTRHNHLKDFMLVVSIVIGVGGCWFAYIQNRYSKEHMKKMMKDLEGLHRAEQSLHDLQERLHKAQEEHRTVEVEKVHLEKKLRDEINLAKQEAQRLKSTRPNPAHFIMTDDVDDMDEEIVSPLSMQSPSLQSSVRQRLTEPQHGLGSQRDLTHSDSESSLHMSDRQRVAPKPPQMSRAADEALNAMTSNGSHRLIEGVHPGSLVEKLPDSPALAKKALLALNHGLDKAHSLMELSPSAPPGGSPHLDSSRSHSPSSPDPDTPSPVGDSRALQASRNTRIPHLAGKKAVAEEDNGSIGEETDSSPGRKKFPLKIFKKPLKK
notes: as for B1

Target: the molecule itself
Test: cross-linking; chemical crosslinking with dithiobis(succinymidyl propionate); constructs separately expressed; unstimulated state (Supplemental Figure S2)

Protein | stoichiometry N
B1 | 2
B2 | 2
